Laboratory results from patent publication US7425614B2, “Neuroprotective therapeutics preventing ERK/MAPK activation through the NMDA receptor” (Children's Medical Center Corporation, priority 2003, dated 2008).

Target: T1, RasGRF1 (Mus musculus, UniProt P27671)
T1 construct: In vitro translated full-length RasGRF1 and AU1-tagged NR2B fragments were coimmunopecipitated with AU1 antibody; made in house; host or cells: cell-free in vitro translation (TNT system, [35S]methionine)
T1 sequence (P27671 1-1262): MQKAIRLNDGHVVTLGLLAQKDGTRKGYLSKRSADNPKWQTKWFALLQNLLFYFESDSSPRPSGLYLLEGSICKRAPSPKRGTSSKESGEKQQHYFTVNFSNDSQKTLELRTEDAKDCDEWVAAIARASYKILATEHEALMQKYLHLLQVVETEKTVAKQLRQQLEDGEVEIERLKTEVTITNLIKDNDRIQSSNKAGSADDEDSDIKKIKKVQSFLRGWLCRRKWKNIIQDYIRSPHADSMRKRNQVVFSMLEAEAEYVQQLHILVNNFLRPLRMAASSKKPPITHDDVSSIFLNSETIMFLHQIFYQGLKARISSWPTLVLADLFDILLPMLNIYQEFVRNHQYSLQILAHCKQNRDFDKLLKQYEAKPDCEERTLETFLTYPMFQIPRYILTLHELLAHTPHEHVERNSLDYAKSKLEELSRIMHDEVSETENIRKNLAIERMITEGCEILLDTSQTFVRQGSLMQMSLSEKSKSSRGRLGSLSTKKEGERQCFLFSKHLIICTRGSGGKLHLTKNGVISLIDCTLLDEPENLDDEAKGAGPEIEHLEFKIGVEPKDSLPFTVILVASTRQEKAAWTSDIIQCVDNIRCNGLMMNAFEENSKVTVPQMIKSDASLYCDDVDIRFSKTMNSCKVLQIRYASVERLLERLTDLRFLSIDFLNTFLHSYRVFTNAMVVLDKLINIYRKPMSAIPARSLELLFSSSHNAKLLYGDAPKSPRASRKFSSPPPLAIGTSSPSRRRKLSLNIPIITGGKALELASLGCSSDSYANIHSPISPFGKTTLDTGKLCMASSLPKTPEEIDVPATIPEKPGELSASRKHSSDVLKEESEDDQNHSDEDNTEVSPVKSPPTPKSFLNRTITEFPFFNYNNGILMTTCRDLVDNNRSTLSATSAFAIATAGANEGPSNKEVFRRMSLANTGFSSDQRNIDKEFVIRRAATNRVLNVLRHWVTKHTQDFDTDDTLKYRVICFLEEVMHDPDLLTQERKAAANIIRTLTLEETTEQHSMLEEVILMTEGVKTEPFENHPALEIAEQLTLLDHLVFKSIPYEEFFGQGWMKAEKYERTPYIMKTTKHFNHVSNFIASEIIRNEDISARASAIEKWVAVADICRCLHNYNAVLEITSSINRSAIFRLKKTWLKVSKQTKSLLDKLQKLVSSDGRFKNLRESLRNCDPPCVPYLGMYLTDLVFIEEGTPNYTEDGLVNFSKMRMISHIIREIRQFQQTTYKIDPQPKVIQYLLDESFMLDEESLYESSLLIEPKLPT
Test: pull-down / in vitro binding of NR2B fragments with in vitro translated RasGRF1
Description: For in vitro translation, fragments of rat NR2B and rat RasGRF1 were made by PCR with 5′-primers containing AU1- and HA-tag encoding sequences; amplified sequences were subcloned into pcDNA3.1. For 293T transfection, the following cDNAs were used: mouse RasGRF1 in pcDNA3, GFP-rat NR2B, GFP rat NR2A in pcDNA1.1, and rat NR1 in pEGFP-C1 (Clontech). EGFP fusion constructs were made by subcloning cDNA fragments encoding different portions of NR2B and RasGRF1 into pEGFP-C1 (Clontech). EGFP fusion constructs were transferred from pEGFP into pSinRep5 and used for preparation of the Sindbis pseudovirus gene transfer system according to the manufacturer's protocol (Invitrogen, Carlsbad, Calif.).
Mouse RasGRF1 in pcDNA3 (Martegani, E., et al. (1992) EMBO J. 11, 2151-2157) was translated in vitro using the TNT system (Invitrogen) and [^35S]methionine. […]
For in vitro binding experiments, equimolar amounts of in vitro translated ^35S-labeled proteins (calculated from radioactivity of the excised protein band and cysteine content in the specific fragment) were incubated with a 3-fold molar excess of translated RasGRF1 for 30 min at 30° C., diluted with RIPA buffer, and immunoprecipitated with anti-HA-agarose (Santa Cruz). […]

- binding to RasGRF1 in vitro: bound
B1: NR2B-BD: peptide of amino acids 886-1310 of the NR2B C-terminal domain that binds RasGRF1; used as NusA or EGFP fusion (protein)
chain: SPTATMNNTHSNILRLLRTAKNMANLSGVNGSPQSALDFIRRESSVYDISEHRRSFTHSDCKSYNNPPCEENLFSDYISEVERTFGNLQLKDSNVYQDHYHHHHRPHSIGSTSSIDGLYDCDNPPFTTQPRSISKKPLDIGLPSSKHSQLSDLYGKFSFKSDRYSGHDDLIRSDVSDISTHTVTYGNIEGNAAKRRKQQYKDSLKKRPASAKSRREFDEIELAYRRRPPRSPDHKRYFRDKEGLRDFYLDQFRTKENSPHWEHVDLTDIYKERSDDFKRDSVSGGGPCTNRSHLKHGTGEKHGVVGGVPAPWEKNLTNVDWEDRSGGNFCRSCPSKLHNYSSTVAGQNSGRQACIRCEACKKAGNLYDISKDNSLQELDQPAAPVAVTSNASSTKYPQSPTNSKAQKKNRNKLRRQHSYDTFVDL
modifications: left off: small tags and cut ends
notes: used as NusA or EGFP fusion
